Reference: paper PMC9800282 (Nature Medicine, 2022)

Assays:
[1] = molecular target: T1, recombinant human α5β1 integrin (human, UniProt P08648 42-1049; P05556 21-728); assay: SPR; Biacore T200; LNA043 (~3,000 RU), FN1 or VTN (~500 RU) amine-coupled to CM5; integrins as analytes 0.6–10 μM, single-cycle kinetics, 37 °C, 1× HBS-N, 0.005% Tween 20, 1 mM MgCl2, 1 mM CaCl2, 2 mM MnCl2; 1:1 binding fit; details: both partners purified
T1 construct: integrin α5 subunit, human, recombinant; integrin β1 subunit, human, recombinant; also called rhα5β1; integrin α5β1; source: bought: R&D Systems (co-IP)

[2] = molecular target: T2, recombinant human αvβ3 integrin (human, UniProt P06756 31-1048; P05106 27-718); assay: as above; details: both partners purified
T2 construct: integrin αv subunit, human, recombinant; integrin β3 subunit, human, recombinant; also called rhαvβ3; integrin αvβ3; source: bought: R&D Systems (co-IP)
T2 sequence (P06756 31-1048, chain 1 of 2): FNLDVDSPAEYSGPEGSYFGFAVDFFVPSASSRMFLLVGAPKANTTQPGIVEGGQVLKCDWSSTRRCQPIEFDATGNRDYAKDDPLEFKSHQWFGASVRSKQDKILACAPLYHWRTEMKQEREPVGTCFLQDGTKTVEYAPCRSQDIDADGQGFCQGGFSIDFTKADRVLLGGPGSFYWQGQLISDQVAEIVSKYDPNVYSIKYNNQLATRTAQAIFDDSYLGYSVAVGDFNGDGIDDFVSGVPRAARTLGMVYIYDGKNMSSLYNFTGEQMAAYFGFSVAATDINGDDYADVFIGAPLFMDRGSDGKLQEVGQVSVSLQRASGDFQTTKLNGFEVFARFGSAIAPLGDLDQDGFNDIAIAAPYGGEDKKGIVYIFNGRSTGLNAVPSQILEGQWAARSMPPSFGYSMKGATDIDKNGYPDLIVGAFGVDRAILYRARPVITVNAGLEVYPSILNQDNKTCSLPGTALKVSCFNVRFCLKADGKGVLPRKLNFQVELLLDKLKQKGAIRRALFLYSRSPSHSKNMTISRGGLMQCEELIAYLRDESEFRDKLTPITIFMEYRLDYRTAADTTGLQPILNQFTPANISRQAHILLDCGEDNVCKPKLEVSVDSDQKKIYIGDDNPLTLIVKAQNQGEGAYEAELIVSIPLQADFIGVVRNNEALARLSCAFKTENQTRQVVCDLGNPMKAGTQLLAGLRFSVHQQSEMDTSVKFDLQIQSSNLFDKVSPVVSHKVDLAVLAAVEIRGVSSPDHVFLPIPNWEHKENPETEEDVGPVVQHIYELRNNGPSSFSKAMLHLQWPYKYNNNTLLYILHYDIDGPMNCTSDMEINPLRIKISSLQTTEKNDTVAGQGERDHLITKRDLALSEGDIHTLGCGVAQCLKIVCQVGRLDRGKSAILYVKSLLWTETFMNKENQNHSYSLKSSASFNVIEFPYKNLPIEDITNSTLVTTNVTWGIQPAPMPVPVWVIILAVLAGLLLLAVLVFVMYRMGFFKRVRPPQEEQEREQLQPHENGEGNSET
T2 sequence (P05106 27-718, chain 2 of 2): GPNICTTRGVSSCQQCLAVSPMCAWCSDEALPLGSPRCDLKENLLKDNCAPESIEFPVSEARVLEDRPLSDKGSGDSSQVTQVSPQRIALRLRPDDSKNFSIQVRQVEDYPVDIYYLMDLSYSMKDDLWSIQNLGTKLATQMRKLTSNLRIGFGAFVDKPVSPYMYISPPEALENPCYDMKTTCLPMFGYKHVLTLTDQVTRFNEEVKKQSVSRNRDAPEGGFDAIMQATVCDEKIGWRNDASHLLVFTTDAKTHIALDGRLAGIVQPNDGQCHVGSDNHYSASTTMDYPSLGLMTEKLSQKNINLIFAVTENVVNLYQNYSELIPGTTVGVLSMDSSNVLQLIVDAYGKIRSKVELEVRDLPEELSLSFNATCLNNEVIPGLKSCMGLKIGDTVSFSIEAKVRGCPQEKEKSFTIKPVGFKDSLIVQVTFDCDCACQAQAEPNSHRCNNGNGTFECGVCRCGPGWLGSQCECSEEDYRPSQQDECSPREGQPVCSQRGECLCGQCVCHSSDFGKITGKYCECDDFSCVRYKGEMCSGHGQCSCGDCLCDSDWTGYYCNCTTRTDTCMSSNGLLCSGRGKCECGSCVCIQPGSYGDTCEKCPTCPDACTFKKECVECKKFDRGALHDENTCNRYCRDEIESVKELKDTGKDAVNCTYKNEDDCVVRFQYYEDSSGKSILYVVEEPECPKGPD

Kd [1]: ~1.5 µM
Kd [2]: ~7.9 µM
B1: LNA043 (domain or fragment)
chain: IPAECTTIYNRGEHTSGMYAIRPSNSQVFHVYCDVISGSPWTLIQHRIDGSQNFNETWENYKYGFGRLDGEFWLGLEKIYSIVKQSNYVLRIELEDWKDNKHYIEYSFYLGNHETNYTLHLVAITGNVPNAIPENKDLVFSTWDHKAKGHFNCPEGYSGGWWWHDECGENNLNGKYNKPRAQSKPERRRGLSWKSQNGRLYSIKSTKMLIHPTDSESFE
